Reference: doi:10.1101/2023.07.14.549122

T1: short pAgo (SPARTA);TIR-APAZ (SPARTA) (Crenotalea thermophila;Crenotalea …, UniProt A0A1I7NFD7;A0A1I7NFG5 1-507;1-450, |)
T1 sequence 1: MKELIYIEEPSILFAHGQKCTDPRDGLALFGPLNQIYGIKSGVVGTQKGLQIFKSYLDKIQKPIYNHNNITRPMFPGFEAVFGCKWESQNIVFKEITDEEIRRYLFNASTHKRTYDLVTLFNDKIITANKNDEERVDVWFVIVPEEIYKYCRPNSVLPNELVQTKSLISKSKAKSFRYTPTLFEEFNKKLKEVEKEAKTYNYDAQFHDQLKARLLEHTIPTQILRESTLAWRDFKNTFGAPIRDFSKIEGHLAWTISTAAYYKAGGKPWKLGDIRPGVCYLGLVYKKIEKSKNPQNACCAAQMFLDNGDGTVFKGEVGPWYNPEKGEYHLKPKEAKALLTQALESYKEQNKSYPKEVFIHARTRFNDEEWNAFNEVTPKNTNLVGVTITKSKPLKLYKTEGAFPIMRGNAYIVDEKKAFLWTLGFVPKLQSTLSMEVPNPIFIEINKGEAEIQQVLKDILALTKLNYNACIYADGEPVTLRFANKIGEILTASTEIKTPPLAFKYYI
T1 sequence 2: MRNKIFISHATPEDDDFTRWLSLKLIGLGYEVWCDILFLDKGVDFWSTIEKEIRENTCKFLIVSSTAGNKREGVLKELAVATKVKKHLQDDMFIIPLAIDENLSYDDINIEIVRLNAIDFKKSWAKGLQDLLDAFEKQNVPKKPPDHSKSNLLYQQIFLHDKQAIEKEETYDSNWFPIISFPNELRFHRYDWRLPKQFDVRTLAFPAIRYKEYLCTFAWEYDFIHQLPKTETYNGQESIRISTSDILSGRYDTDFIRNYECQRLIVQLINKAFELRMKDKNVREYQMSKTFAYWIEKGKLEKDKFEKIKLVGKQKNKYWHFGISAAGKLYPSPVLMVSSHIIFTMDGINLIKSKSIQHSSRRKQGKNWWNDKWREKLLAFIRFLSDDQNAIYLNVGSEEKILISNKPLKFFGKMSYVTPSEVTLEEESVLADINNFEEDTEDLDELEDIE


Key:
[1] = biological target: Crenotalea thermophila SPARTA complex (heterodimer of TIR-APAZ and short pAgo) (Crenotalea thermophila); assay: cryo-EM structure
[2] = biological target: T1, short pAgo (SPARTA);TIR-APAZ (SPARTA); assay: cryoEM structure

Molecule | stoichiometry N [1] | binding result [2]
Crenotalea thermophila SPARTA complex (heterodimer of TIR-APAZ and short pAgo) | 4 | –
gRNA-target ssDNA (25 nt target) (DNA:RNA, 5'-phosphate on gRNA) RNA: AAACGGCUCUAAUCUAUUAGU DNA: CAACTAATAGATTAGAGCCGTTTAT | – | binds
